According to the DeepSol protein solubility set:

Test: soluble on expression in E. coli; label from the status in PepcDB or PDB records

Row | Sequence | soluble on expression in E. coli
1 | PVTNMAELDAMIARVKKAQEEFATYSQEQVDKIFRAASLAANQARIPLAQQAVEESGMGIVEDKVIKNHFASEFIYNKYKDEQTCGILEEDDNLGTMTIAEPVGIICGIVPTTNPTSTAIFKSLISLKTRNGIIFSPHPRAKNSTNDAAKLVLDAAVAAGAPKDIIGWIDQPSVELSNALMKHDDIALILATGGPGMVKAAYSSGKPAIGVGAGNVPVVIDETADIKRAVASVLMSKTFDNGVVCASE | not soluble
2 | MGSDKIHHHHHHMLEELRTLVLFAEEGSIQNVARRLPLTQPAVTRQMQRLEDMLATTLLDRRQKPPRLTAAGLEVLARAKDILASVEALKAFAADAEPQGVLRVGLAHGLSDASIAGAIAGAAAAFPKISLRLKTGWSAELIEQFERGQLDMAIVLRPADHQGPDALGTERLCIIAQAGAHLTDARVPMPWVLSPEPCDARQTLLSSLGGERHPLIVAAEIQDPAMQMEWVRRGHGLGLMPLRLAARGLPDGLALVDLEDVDLSLQVVALRSPHLNRLAKAVEAIAQTVGEAIKIEA | not soluble
3 | MAHHHHHHMSISGAAAPAPLRGRESGGNVPGSMGALIKKLHPLYTQRVRPLEEMYSFDVFRPSWYEETILNERPFITLFGPWSAGKTTFINYLLQSNDLWTGPQPTTAEFTVVMYGKEPGPVAGQALANSKHLPFKGLLDFGESFIRNLKGFQAPHALLERVTLIDTPGVLESAKDIHQRKYDYVNVCRWFAERSDLIFVFFDPSKLDAGGELRQLFQTSFKGFENRLRLVLNKADTISTQELMRVYGSLFWNLSNFINTTEPPRVYVGSFWDKPYSPNSFSRLFAEEKLDLLHELLEVIPQQARDKKVASLIRRAKEVLVHAVILGGIRADLPLLFGKSKAKKKAAEQLPRRYELIGARYKMNHRDFPPVQAYRSFLERFDVAKFPPLQKAEKAGLIRGIQELIDTILPSMLRPVCNTRAANPFEEDKQTGLLSMYRDHVLLQRDGRPGMQGGTDKVASTMGQGVPDSATTGPSSSVAAAPASGPSSLLGPGPAVTALSASPPFIELPSRAMAASSTAVAASSPPPPPPSSAAATSSPADMQAMMAIMQQMVAYQQQQQQQQDRQSSSAPATVNSHGTLSSSSSETSGCLAESSVPVTPQESNLNSEPQPPTVVPQLGLPNSCATQISAWAGGDESKSQH | soluble
4 | GPVDPAEYDAVWSAWRRAAPAEESRGRAAVVQKMRACLNNGNAVLNVGESGLTTLPDCLPAHITTLVIPDNNLTSLPALPPELRTLEVSGNQLTSLPVLPPGLLELSIFSNPLTHLPALPSGLCKLWIFGNQLTSLPVLPPGLQELSVSDNQLASLPALPSELCKLWAYNNQLTSLPMLPSGLQELSVSDNQLASLPTLPSELYKLWAYNNRLTSLPALPSGLKELIVSGNRLTSLPVLPSELKELMVSGNRLTSLPMLPSGLLSLSVYRNQLTRLPESLIHLSSETTVNLEGNPLSERTLQALREITSAPGYSGPIIRFDMAGASAPRETRALHLAAADWLVPAREGEPAPADRWHMFGQEDNADAFSLFLDRLSETENFIKDAGFKAQISSWLAQLAEDEALRANTFAMATEATSSCEDRVTFFLHQMKNVQLVHNAEKGQYDNDLAALVATGREMFRLGKLEQIAREKVRTLALVDEIEVWLAYQNKLKKSLGLTSVTSEMRFFDVSGVTVTDLQDAELQVKAAEKSEFREWILQWGPLHRVLERKAPERVNALREKQISDYEETYRMLSDTELRPSGLVGNTDAERTIGARAMESAKKTFLDGLRPLVEEMLGSYLNV | soluble
5 | DLAKELFTHKGSGTLIRRGERVIRATTWKDLDLPRLQHLIQSSFRRTLIPHYFETTPLLRAYVSENYRAAVILTKLGNVPYLDKFAVLDDAQGEGLGRAVWSIMREETPQLFWRSRHNNQANAFYYAESDGYYKQDHWKIFWNGLHHFQQIQQCVAHCTQH | not soluble
6 | SAAPMSNVDEIRDRVILGEFGVKNVHTTDYPGNYPGYDDTWDFEKFKKNFRIEIISSDENTLEFDMIGIDAAIANAFRRILLAEVPTMAIEKVFIYNNTSIIQDEILAHRLGLVPIKADPRLFEYRNSEDQEGTEIDTIQLQLKVKCTRNPRAPKDSSDPKELYLNHMIYSGDIKWLPIGNQADVFADAKIGPVHGDILLAQVRPGQELDIVMHCVKGIGKDHAKFSPVATASYRLLPEITLLQTIEGEQAERLKRCFSPGVIELENVNGRKVAKVVNSRLDTCSREVLRHDDLKSLVKLGRVRDHFIFSVESTGILPPDVLVTEAINVLMSKCQKFLTELEATEMD | soluble
7 | MDAQLEWASSLVPKRQLQQQQQQQEQQQQQQQDFHKDQLMTVGMRIRQRVDQGYASRTPSTSDASLQPGVIRDYSSVIVPQFTRSPLPTANSLPPMLINQRTMSTEASSLEKWDVAEPAAEHETMVNGSKRRL | soluble
8 | MAHHHHHHMKNKSIRKERQSGETLEDNIEEINYCIKVIPKDKINSKGNGAIRLSNLDMNRSNNGNYYNQNNNVENINDFETECRNYIEDILKIDEYVKLPNSINNEQDKIKWKKAHSLRNRMKEYDLITRTRLYQSNSVNNKAKLNRERYIILNKIPRYREAFPSIMNNTSTDKIKEDIIRTYLKTHAAYFLSQNKKNSNLSLKNMGRNTYFSFRKKSDDRNNSLINYNKHMNDKSKSVEHNNCPNLKKKDRSYNLWKRITVDDIKNTHFTPTEKQYLKDYNIFLNDAFNNFKINQNNNKRQLNVKNQKNIPNYDMINNKIYGHIKNNANNNLYINNQKREDAYIINPSQNNIITSPNEEQYPYFNNYSYSDKNKNLSTYNTEGKRNIYTNDVKSNTNYQHSNNSNYSDESLNMFSNSSTSIYEKYNLKDKNFVLKRDRYALLGKIKNNKEIEVKLVLNKV | not soluble
9 | MAKNFAEQIVESLENQGVKRIYGLVGDSLNPIVDAVRTSNIEWIHVRNEETAAFAAEAESLLTGELAVCAASCGPGNTHLVQGLYDANRNGAKVLAIASHIPSRQIGSHFFQETHPEALFAECSGYCEMANSALQGEVILHHAIQSTMAGKGVSVLVLPGDVTMQDVEDDTFTGSRISNARPIMYPDPAEAADLVKAINEAKTVTLFCGAGVRYARKEVLELAEKIKAPIGHALGGKMYIQYDNPFDVGMSGLLGYGACHDASNDADLLILLGTDFPYNDFLPRKNVAQIDIDGSHIGRRTRISHPVVGDVAATISNILPHIEEKTDRSFLDRMLKKHHRKLNDVIEAYTSGVEKHTPIHPEFVANIIDEIAADDAVFTIDTGMCNVWGARYITPNGKREMIGSFRHGTMANALPQAIGASAANPRRQVVTFSGDGGLGMLMGELLTVKLHNLPIKTVVFNNSSLGMVKLEMLVQGMPEHETDHEHVDFDAIAAAVGIEHIKITDPAKARQQLQAAFDYDGPVLIDIITDPNALSIPPNITMDMLMGFSRAATRTVFGGGVGHMVDMAKSNLRNIPKP | not soluble
10 | MSDHLGSSHDEGELSDESHKKSQRASSSDEPNPAKSNKGLESKMRESILSRLSKRKNSESDDDTTEQRFSIQPKNAQKAKEDRYRDKERDKKREKDKRDDRRDVRGPDARQKDRDFKGRQERSGRDQKVHEHRHHHHHRKHETDGHRTNRSNRDRSSERDSEKHKRHIDRHKKSSTTSPDNDKSPHKKSKHTDVPADAKLFDRILDPNYKKKDDDVLVIEDVEMSPIEILEEKEEKEIVEFTIDSPAGPKKYSKFESDPESDHDDTKPKSPGKAEDDDDVIEVLDDALHSDDDADSDEDKYLKTPEDREWEEMTETEQRLHKEAMKKRASMKQKTLIAQLPVFYPGLMGCRNIDEYECVNRVDEGTFGVVYRGKDKRTDEIVALKRLKMEKEKEGFPITALREINMLLKAGNHPNIVNVKEILLGSNMDKIYMAMEFVEHDMKSLLDTMSRRNKRFSIGEQKTLLQQLLSGIEHMHKLWILHRDLKTSNLLMSHKGILKIADFGLAREYGDPLKKFTSIVVTLWYRSPELLLGTRLYSTPVDMWSVGCIMAEFILLKPLFPGRGELEQIKKIFMEMGTPTESIWPGVTELDGWKALTFEKYPYNQLRKRFLAGRLLNDTGFKLLNGLLTLDPKNRFSATQALDHEWFTEEPYPVPPEEFPTFPAKSEQNKAPPPAKQKQQENRISHVDPETAKLLKQFEVRPEQVKPGGFSLKFDPTRF | not soluble
11 | MGSDKIHHHHHHMSEIETIQAYYAASLGKDGRITRTQRQILAAALDLFAEKGYEEVGTREIAERAGVAEGTLFHNFVNKNGILDAIMQPIVQNILPTMLNTLDQAVLDSPNQTLQAFVVALVRDRVAFVTRNRASLAVILSQFFNNAQDRAAVLGMVSPSILAQANEAMDRLKAARELVDWPNRMILQLVFSTIGGYLVEQVLYPQLDDLSDEQLIHYLSDFLVNGLSPRRIPLQDDNTAS | not soluble
12 | SMVSPEEAVKWGESFDKLLSHRDGLEAFTRFLKTEFSEENIEFWIACEDFKKSKGPQQIHLKAKAIYEKFIQTDAPKEVNLDFHTKEVITNSITQPTLHSFDAAQSRVYQLMEQDSYTRFLKSDIYLDLMEGRPQRPTNLRRRSRSFTCNE | soluble
13 | RVTVMLAAFEGWNDAGEAASDALHYLNKLWDGKKVATVDAEEYYDFQFTRPTVRRTSSGARKVKWPSTRIYKAEVPDSNVDVVLVLGTEPSYRWRAYTTELLVHAEALKVDSVILVGALLADVPHSRPIPVSTTTEDSSLRERLNLEASQYEGPVGIVGVLAEFAMLAGLPTVSLWAAVPHYVAQPPSPKAQLAILHRIEDLLQVPLDSQALAEESEAWERGVDELATEDPEITAYVRQLEEAKDTADLPE | not soluble
14 | MGSDKIHHHHHHMVTETYINKLLAPIRRRITGMLTRAVVSGIVEDLQRQNLQVKMHADESADNIERFQNYGMSSYPPEGAEAIVAALGGALSGLVAIAVEDKKFRPKGESGDVFLYHLEGHKIRLTKDGKIILTAQDVIFEIENSFTISTTDVIFNASGSFTIISPETLIDGPLHVTGDISTDLGITAVNGITSNSVITGSDLSANNISYLGHIHKDAENRPTTAPE | not soluble
15 | AGLPRNAVTAVVPSPFHHAEAGVLRVPDLKADPRNAAEHTAAIIRELPELVKGARGSLVLFSSRKQMQEVFDGLDRDWRKRVFIQGNLSKQETLNKHKSRVDDGEDSVLFGLASFAEGVDLPGAYCEHVVIAKIPFAVPDDPVEAALAEWIEARGGNPFMEIAVPDASLRLVQACGRLLRTEQDRGTITLLDRRVVTQRYGKAILNALPPFRREIA | not soluble
16 | MKQIFIGIIRFYQKFISPMTPPTCRFYPTCSHYGLEAFQKHGALKGFWLTCKRILKCHPFHPGGFDPVPDKKDDKVNSLEHHHHHH | not soluble
17 | MSLIKLYDNYVFISQEGGESGERLYSKKFREKSVVDVSGLRIGEGLVVAAGPCSVENEAMILDIARSVKAAGADMIRGGAFKPRTSPYSFQGLAEKGIEYLVEAREETGLPIVTEIMNPEYYRYFDRVDMLQVGSRNAQNFDLLRFLGKQKKPVLLKNGMGNTAREWLETAEYILSGGNGNVVLCYRGVRGIENSTRFTMNVGSIIYAKSETHLPICADPSHASGRRDFVESMALASVAAGADMLEIEVHNDPDNALSDSEQQIRPVDLKRIIEKARALKDLLSHEIEGHHHHHH | not soluble
18 | MFSLLRKSLKSPAPKKVVPSQRTVSVAGRQVPITVRENPRATRITLRIEPGGRALKLTIPMGLHHRQVDDFLERHQGWLEGKLLKFSPDDGLRPGATIDIRGISHRIEHTGSLRGLTHIAKDADGVAVLKVSGAPEHLRRRIATFLKKEAKADLERLVAIHGRAAGRPVRSISMKDTRSRWGSCSHDGNLSFSWRIVMAPDRVIDYLAAHEVAHLSEMNHGPKFWALCEKLCPHTSEAKDWLKRHGSKLHAIDFDLEHHHHHH | not soluble
